For experiment [1], the target named is platelets (human, fresh washed). Kind of experiment: competition: soluble peptide against divalent cation-independent adhesion of platelets to coated 45 kDa.
For experiment [2] the target is unchanged. Kind of experiment: competition: 300 uM soluble peptide against platelet adhesion to coated FN in the presence of Ca+2.

The record followed here is patent publication US6083914.

B1: FN312-323 (peptide)
peptide: TAVTQTYGGNSN
On to B1, for which, in experiment [1], the ED50 is 712 µM and the fold reduction of apparent affinity against FN312-326 turned out to be 10 fold.

B2: FN316-333 (peptide)
peptide: QTYGGNSNGEPSVLPFTY
In turn, B2 gave an ED50 in experiment [1] above 2000 µM.

B3: FN312-318 (peptide)
peptide: TAVTQTY
As for B3, the ED50 in experiment [1] was above 2000 µM.

B4: FN312-326 (peptide)
peptide: TAVTQTYGGNSNGEP
For the molecule B4, the ED50 in experiment [1] amounted to 68 µM. Besides, the percent reduction of platelet adhesion to FN in experiment [2] worked out at 50%.
